We go through four substances from PMC4729829, “BAP1/ASXL1 recruitment and activation for H2A deubiquitination” (Nature Communications, 2016).

The target in series [1] is Nucleosome core particle mono-ubiquitinated at H2A K119 with N-terminally TAMRA-labeled ubiquitin (Xenopus | not stated) (UniProt P06897). Briefly: fluorescence polarisation; stopped-flow; 20 nM ^TAMRAUb-NCP mixed with various concentrations of inactive (C91A) BAP1 or BAP1/ASXL1^DEU; 25 mM HEPES pH 7.5, 150 mM NaCl, 0.05% Tween-20, 0.5 mM TCEP; 20 °C; kobs against concentration by linear regression.

Series [2] concerns BAP1 C91A;ASXL1 DEUBAD (ASXL1DEU). In words: stopped-flow fluorescence polarization. Conditions: 20 C, 20 nM NCP, histone H2A K119 mono-ubiquitinated by RING1B/BMI1, EMSA: 100 nM NCP, 4-12% Tris-glycine native gel, 4 C, FP: 25 mM HEPES pH 7.5, 150 mM NaCl, 0.05% Tween-20, 0.5 mM TCEP.
The target of series [3] is BAP1/ASXL1^DEU complex (wild type) (human) (UniProt Q92560).
Series [4] addresses BRCA-1-associated protein 1 (BAP1), full length, wild type (human) (UniProt Q92560).
The target in series [5] is BAP1/ASXL1DEU complex (human) (UniProt Q92560).

The Kd is the equilibrium constant for the complex coming apart. In series [1], “BAP1 (C91A)/ASXL1^DEU complex (from UniProt Q92560 1-729; Q8IXJ9 238-390)” came in with a Kd of 4 µM.

Regarding “TAMRA-Ub-NCP (H2A K119ub, Widom 601 167 bp)”, in series [2], the Kd was 4 µM.

As for “Non-hydrolyzable H2A-peptide ubiquitin conjugate (ubiquitin linked at the K119 position) (from UniProt P0CG48 1-75)”, the IC50 of inhibition of Ub-AMC hydrolysis by the BAP1/ASXL1^DEU complex, against BAP1 alone (fold lower than BAP1 alone) in series [3] was > 10. The substance also showed an IC50 of inhibition of Ub-AMC hydrolysis by BAP1 (500 pM enzyme, 2 μM Ub-AMC, conjugate up to 200 μM) in series [4] of 45 μM.

Consider “non-hydrolyzable H2A-peptide ubiquitin conjugate (H2A-K119) (from UniProt P0CG47 1-75)”, for which the Supplementary Table 3: IC50 of the non-hydrolyzable H2A ubiquitin conjugate for inhibition of Ub-AMC hydrolysis by BAP1/ASXL1DEU in series [5] was 3.3 µM.
